Test [1] has as its target BMP-9 monomer (cysteinylated BMP-9 growth factor) (human) (UniProt Q9UK05).
Test [2] has as its target BMP-9 disulfide-linked dimer (wild-type growth factor) (human) (UniProt Q9UK05).
In test [3] the target is T1, Pro-(X)-BMP-10 R353K, O95393.
T1 chain: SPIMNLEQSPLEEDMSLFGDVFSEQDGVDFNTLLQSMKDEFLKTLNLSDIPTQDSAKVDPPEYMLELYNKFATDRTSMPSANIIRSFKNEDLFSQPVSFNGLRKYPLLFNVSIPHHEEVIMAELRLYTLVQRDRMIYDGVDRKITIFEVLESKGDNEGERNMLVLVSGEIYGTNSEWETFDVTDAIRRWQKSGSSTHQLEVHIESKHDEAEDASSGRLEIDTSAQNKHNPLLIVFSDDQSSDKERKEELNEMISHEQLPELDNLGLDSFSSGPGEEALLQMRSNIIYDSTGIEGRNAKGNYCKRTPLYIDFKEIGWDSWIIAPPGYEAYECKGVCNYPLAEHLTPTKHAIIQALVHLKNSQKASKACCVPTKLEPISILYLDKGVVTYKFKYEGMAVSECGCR
The test is described as follows: SDS-PAGE densitometry. The following applies: chain shown with the change; IMAC column purified Pro-BMP-10.

Test [4] concerns the target BMP-10 monomer (cysteinylated BMP-10 growth factor) (human) (UniProt O95393).
Test [5] deals with BMP-10 disulfide-linked dimer (growth factor) (human) (UniProt O95393).

Consider five molecules from PMC12148503, “Molecular Basis of Interchain Disulfide Bond Formation in BMP-9 and BMP-10” (Journal of molecular biology, 2025).

In test [1], “BMP-9 monomer (cysteinylated BMP-9 growth factor) (from UniProt Q9UK05 320-429) (ligand)” returned an EC50 of pSMAD1/5/9 (western blot) in serum-starved HUVECs treated for 45 min with BMP-9 monomer, 0.01-54 ng/mL of 124 pM.
“BMP-9 disulfide-linked dimer (wild-type growth factor) (from UniProt Q9UK05 320-429) (ligand)” returned an EC50 of pSMAD1/5/9 (western blot) in serum-starved HUVECs treated for 45 min with BMP-9 disulfide-linked dimer, 0.001-1.62 ng/mL in test [2] of 3.3 pM.

B1: Pro-(X)-BMP-10, O95393 R353K (protein)
chain: T1 chain
For the molecule B1, the other: disulfide-linked dimer over monomer ratio in test [3] came out at 0.9.

B2: BMP-10 monomer (cysteinylated BMP-10 growth factor) (ligand)
chain: NAKGNYCKRTPLYIDFKEIGWDSWIIAPPGYEAYECRGVCNYPLAEHLTPTKHAIIQALVHLKNSQKASKACCVPTKLEPISILYLDKGVVTYKFKYEGMAVSECGCR
modifications: cysteinylated (+119 Da; the paper places it on the interchain cysteine)
On to B2, for which the EC50 of pSMAD1/5/9 (western blot) in serum-starved HUVECs treated for 45 min with BMP-10 monomer, 0.01-54 ng/mL in test [4] is 164 pM.

B3: BMP-10 disulfide-linked dimer (growth factor) (ligand)
chain: B2 chain
modifications: interchain disulfide
B3 gave an EC50 of pSMAD1/5/9 (western blot) in serum-starved HUVECs treated for 45 min with BMP-10 disulfide-linked dimer, 0.001-1.62 ng/mL in test [5] of 5.9 pM.
